This note sets out measurements from the Immune Epitope Database (IEDB).

Some targets named below: HLA-A*02:01; HLA-A*02:03; HLA-A*02:02; HLA-A*02:06; HLA-A*68:02.
What all share (experiment): IEDB peptide-MHC binding, cellular MHC/competitive/fluorescence; ≥ and ≤ were set here for values at or beyond the usual limits of such assays
Where [1] appears, read: source organism: Vaccinia virus WR.
The mark [2] stands for this setting: source organism: Influenza A virus.

As to LTPFEKEFT, the IC50 with HLA-A*02:01 (setting [1]) is 44.5 µM; with HLA-A*02:03 (setting [1]), 20.9 µM; in the experiment with HLA-A*02:02 (setting [1]) it was 16.8 µM; with HLA-A*02:06 (setting [1]), at least 70 µM; in the experiment with HLA-A*68:02 (setting [1]), at least 70 µM.
LVSKHWELT: the IC50 in the experiment with HLA-A*02:01 (setting [1]) is at least 70 µM; in the experiment with HLA-A*02:03 (setting [1]) it was 14.9 µM; in the experiment with HLA-A*02:02 (setting [1]), 12.2 µM; in the experiment with HLA-A*02:06 (setting [1]), at least 70 µM; with HLA-A*68:02 (setting [1]) it was at least 70 µM.
Consider MQLKIDKLT, for which the IC50 is 26.6 µM in the experiment with HLA-A*02:01 (setting [1]); 60.1 µM with HLA-A*02:03 (setting [1]); 7.67 µM with HLA-A*02:02 (setting [1]); 59.7 µM in the experiment with HLA-A*02:06 (setting [1]); at least 70 µM with HLA-A*68:02 (setting [1]).
Taken in the same sequence, the figures for NILGGVLHT were 41.7 µM, 20.6 µM, at least 70 µM, 9.97 µM and at least 70 µM.
Regarding NINFNNSSII, the IC50 in the experiment with HLA-A*02:01 (setting [1]) came out at 32.7 µM; with HLA-A*02:03 (setting [1]), 13.3 µM; with HLA-A*02:02 (setting [1]), 6.64 µM; with HLA-A*02:06 (setting [1]), 30.1 µM; with HLA-A*68:02 (setting [1]), 6.97 µM.
The like results for NLCKYLRGHT were, in that order, 37.9 µM, 8.04 µM, 39.6 µM, at least 70 µM and 12.3 µM.
Take NLPFDKTTIMA: the IC50 in the experiment with HLA-A*02:01 (setting [2]) is 25 µM; with HLA-A*02:03 (setting [2]), 8.43 µM; in the experiment with HLA-A*02:02 (setting [2]), 7.7 µM; in the experiment with HLA-A*02:06 (setting [2]), at least 70 µM; with HLA-A*68:02 (setting [2]) it was 11 µM.
With NMDKVSAQNI, the IC50 with HLA-A*02:01 (setting [1]) is 16 µM; with HLA-A*02:03 (setting [1]), 16.8 µM; in the experiment with HLA-A*02:02 (setting [1]), 8.02 µM; with HLA-A*02:06 (setting [1]) it was at least 70 µM; in the experiment with HLA-A*68:02 (setting [1]), 37.3 µM.
Turning to NTTIEKEI, the IC50 was 50.7 µM with HLA-A*02:01 (setting [2]); at least 70 µM with HLA-A*02:03 (setting [2]); at least 70 µM with HLA-A*02:02 (setting [2]); at least 70 µM in the experiment with HLA-A*02:06 (setting [2]); at least 70 µM in the experiment with HLA-A*68:02 (setting [2]).
Turning to NVDVGCLLT, the IC50 in the experiment with HLA-A*02:01 (setting [1]) was 47.3 µM; in the experiment with HLA-A*02:03 (setting [1]), 14 µM; with HLA-A*02:02 (setting [1]), 9.85 µM; with HLA-A*02:06 (setting [1]), 64.9 µM; with HLA-A*68:02 (setting [1]), at least 70 µM.
Turning to NVKDYSIV, the IC50 in the experiment with HLA-A*02:01 (setting [2]) was at least 70 µM; with HLA-A*02:03 (setting [2]) it was 6.53 µM; with HLA-A*02:02 (setting [2]), at least 70 µM; in the experiment with HLA-A*02:06 (setting [2]), at least 70 µM; in the experiment with HLA-A*68:02 (setting [2]) it was 11.3 µM.
On to NVRGSGMRILV, for which the IC50 with HLA-A*02:01 (setting [2]) was 20.8 µM; with HLA-A*02:03 (setting [2]) it was 46.1 µM; in the experiment with HLA-A*02:02 (setting [2]), at least 70 µM; with HLA-A*02:06 (setting [2]) it was 54.7 µM; in the experiment with HLA-A*68:02 (setting [2]), 11.2 µM.
The like results for PACVYGLA were, in that order, 68.7 µM, at least 70 µM, at least 70 µM, at least 70 µM and 52.3 µM.
For PACVYGPA, the IC50 with HLA-A*02:01 (setting [2]) was at least 70 µM; in the experiment with HLA-A*02:03 (setting [2]), at least 70 µM; with HLA-A*02:02 (setting [2]), 14.2 µM; in the experiment with HLA-A*02:06 (setting [2]), at least 70 µM; with HLA-A*68:02 (setting [2]) it was at least 70 µM.
Take PAEMLANI: the IC50 with HLA-A*02:01 (setting [2]), in the experiment with HLA-A*02:03 (setting [2]), in the experiment with HLA-A*02:02 (setting [2]), in the experiment with HLA-A*02:06 (setting [2]) and with HLA-A*68:02 (setting [2]) was at least 70 µM in each case.
For PAEMLASI, the IC50 in the experiment with HLA-A*02:01 (setting [2]), with HLA-A*02:03 (setting [2]), with HLA-A*02:02 (setting [2]), with HLA-A*02:06 (setting [2]) and with HLA-A*68:02 (setting [2]) was at least 70 µM throughout.
As for PAHKSQLV, the half-inhibitory concentration (IC50) in the experiment with HLA-A*02:01 (setting [2]), with HLA-A*02:03 (setting [2]), in the experiment with HLA-A*02:02 (setting [2]), with HLA-A*02:06 (setting [2]) and with HLA-A*68:02 (setting [2]) was at least 70 µM in each case.
With PAHLINKLL, the IC50 with HLA-A*02:01 (setting [1]) was determined as 11.3 µM; with HLA-A*02:03 (setting [1]), 6.31 µM; with HLA-A*02:02 (setting [1]), 6.69 µM; with HLA-A*02:06 (setting [1]) it was 42.5 µM; in the experiment with HLA-A*68:02 (setting [1]), 11.2 µM.
The like results for PAMSTYSDI were, in that order, 16.1 µM, 20.6 µM, 18.3 µM, at least 70 µM and 69.8 µM.
Taken in the same sequence, the figures for PANINDKQIM were 32.3 µM, 43.1 µM, 49.5 µM, 10.9 µM and at least 70 µM.
Take PLHIVCSKTV: the IC50 turned out to be 21.3 µM in the experiment with HLA-A*02:01 (setting [1]); 5.27 µM with HLA-A*02:03 (setting [1]); 34.5 µM with HLA-A*02:02 (setting [1]); 27 µM with HLA-A*02:06 (setting [1]); 9.35 µM in the experiment with HLA-A*68:02 (setting [1]).
The like results for PLIISTDQDT were, in that order, 52.5 µM, 35.6 µM, 45 µM, 47.4 µM and at least 70 µM.
As to PLIRHENRMVL, the IC50 with HLA-A*02:01 (setting [2]) was 28.8 µM; in the experiment with HLA-A*02:03 (setting [2]) it was 16.9 µM; with HLA-A*02:02 (setting [2]), at least 70 µM; with HLA-A*02:06 (setting [2]) it was at least 70 µM; with HLA-A*68:02 (setting [2]) it was at least 70 µM.
